# In article PMC8762078, “An ALS-associated variant of the autophagy receptor SQSTM1/p62 reprograms binding selectivity toward the autophagy-related hATG8 proteins” (The Journal of Biological Chemistry, 2021):
# Target: p62 WT-AIM peptide (human)
# Test: native MS; ESI-MS competition binding under nondenaturing conditions: each hATG8 titrated into an equimolar mixture of WT-AIM and L341V-AIM peptides (each 10 μM); read-out is the ratio of peak intensities of unbound WT and L341V peptides; ratios given for 20 μM hATG8; two independent experiments
# Sequence of GABARAPL1 (Q9H0R8 whole entry): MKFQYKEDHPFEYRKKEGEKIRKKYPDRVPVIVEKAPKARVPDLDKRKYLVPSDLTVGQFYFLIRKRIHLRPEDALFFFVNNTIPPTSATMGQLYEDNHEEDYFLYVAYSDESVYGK
substance,measurement,value
GABARAPL1 (from UniProt Q9H0R8 1-117) (natural protein),ratio of unbound WT:L341V AIM peptides at 20 μM hATG8 (reference: L341V-AIM),0.5
